Experimental data taken from PMC10425327.

Biological target: T1, complement C5a receptor (mouse (endogenous in Peyer's patch LysoDCs)) (UniProt P30993)
T1 sequence: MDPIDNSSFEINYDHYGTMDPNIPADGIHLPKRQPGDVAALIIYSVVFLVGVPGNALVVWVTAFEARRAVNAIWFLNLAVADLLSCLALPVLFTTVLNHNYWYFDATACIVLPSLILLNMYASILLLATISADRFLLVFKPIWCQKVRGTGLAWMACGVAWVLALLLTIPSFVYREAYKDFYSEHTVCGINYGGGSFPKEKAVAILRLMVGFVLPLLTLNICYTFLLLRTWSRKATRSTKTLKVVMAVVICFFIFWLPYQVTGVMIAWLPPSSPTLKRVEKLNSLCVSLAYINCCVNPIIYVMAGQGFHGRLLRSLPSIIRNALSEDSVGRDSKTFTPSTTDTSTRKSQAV

SFHQLPARSPLP [Co1 peptide]
CCL2 (MCP-1) in the culture supernatant of C5aR+ LysoDCs treated with Co1 peptide (10 uM, 24 h), against untreated C5aR+ LysoDCs and Co1-treated C5aR- LysoDCs: > 2 fold | CCL3 (MIP-1alpha) in the culture supernatant of C5aR+ LysoDCs treated with Co1 peptide (10 uM, 24 h), against untreated C5aR+ LysoDCs and Co1-treated C5aR- LysoDCs: > 2 fold
